Assay in all cases: cell-based or functional assay
Assay [1] addresses NA (neuraminidase) used in the NA activity inhibition experiments of Example 9.
The target in assay [2] is T1, neuraminidase of influenza A/Vietnam/1203/04 (H5N1, clade 1) on live virus (influenza A/Vietnam/1203/04 (H5N1), UniProt Q6DPL2 1-449).
In assay [3] the target is T1, neuraminidase of influenza …. This is another data set of the same source.

T1 sequence (Q6DPL2 whole entry): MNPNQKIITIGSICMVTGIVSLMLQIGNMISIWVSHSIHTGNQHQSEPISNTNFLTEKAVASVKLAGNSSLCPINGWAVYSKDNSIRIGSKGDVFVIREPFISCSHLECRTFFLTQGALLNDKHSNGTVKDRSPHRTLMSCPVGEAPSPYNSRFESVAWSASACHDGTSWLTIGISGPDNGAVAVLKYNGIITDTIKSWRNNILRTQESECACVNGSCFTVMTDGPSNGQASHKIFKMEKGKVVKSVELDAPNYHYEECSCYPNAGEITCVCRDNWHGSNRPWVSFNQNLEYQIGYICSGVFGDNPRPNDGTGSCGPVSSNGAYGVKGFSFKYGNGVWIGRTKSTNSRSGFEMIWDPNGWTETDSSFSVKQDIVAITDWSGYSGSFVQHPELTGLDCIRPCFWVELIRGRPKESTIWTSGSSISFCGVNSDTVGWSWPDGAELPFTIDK

B1: 2B9 anti-N1 neuraminidase monoclonal antibody (antibody, V domains shown)
VH: QVQLQQSGAELVRPGTSVKMSCKAAGYTFTNYWIGWVKQRPGHGLEWIGDIYPENDFSNYNEKFKDKATLTADTSSRTAYMQLSSLTSEDSAIYYCVRANEGWYLDVWGTGTTVSVSS
VL: DIQMTQSPASLSESVGETVTITCRASENIYSYLAWYQQKQGKSPQLLVYFAKTLAEGVPSTFSGSGSGTLFSLKINSLQPEDFGNYYCQHHYGTPYTFGGGTKLEIKR
With B1, the “IC50, inhibition of NA activity” value in assay [1] was 0.82 µg/mL. In assay [2], the “NA assay IC50 (Antibody IC50)” value was under 1 µg/mL. For the same molecule, in assay [3], the “IC50 of 2B9 against various influenza strains (NA inhibition)” value is at most 1 µg/mL.

These data come from patent publication US8734803 (IBIO, dated 2014).
